The values that follow come from PMC4309261.

For this data set, the target named is Sp1 (UniProt P08047 2-785). As to the kind of experiment: EMSA. (In general: A gel shift assay detects complexes by their altered migration in electrophoresis.)
Chain of Sp1 (P08047 2-785): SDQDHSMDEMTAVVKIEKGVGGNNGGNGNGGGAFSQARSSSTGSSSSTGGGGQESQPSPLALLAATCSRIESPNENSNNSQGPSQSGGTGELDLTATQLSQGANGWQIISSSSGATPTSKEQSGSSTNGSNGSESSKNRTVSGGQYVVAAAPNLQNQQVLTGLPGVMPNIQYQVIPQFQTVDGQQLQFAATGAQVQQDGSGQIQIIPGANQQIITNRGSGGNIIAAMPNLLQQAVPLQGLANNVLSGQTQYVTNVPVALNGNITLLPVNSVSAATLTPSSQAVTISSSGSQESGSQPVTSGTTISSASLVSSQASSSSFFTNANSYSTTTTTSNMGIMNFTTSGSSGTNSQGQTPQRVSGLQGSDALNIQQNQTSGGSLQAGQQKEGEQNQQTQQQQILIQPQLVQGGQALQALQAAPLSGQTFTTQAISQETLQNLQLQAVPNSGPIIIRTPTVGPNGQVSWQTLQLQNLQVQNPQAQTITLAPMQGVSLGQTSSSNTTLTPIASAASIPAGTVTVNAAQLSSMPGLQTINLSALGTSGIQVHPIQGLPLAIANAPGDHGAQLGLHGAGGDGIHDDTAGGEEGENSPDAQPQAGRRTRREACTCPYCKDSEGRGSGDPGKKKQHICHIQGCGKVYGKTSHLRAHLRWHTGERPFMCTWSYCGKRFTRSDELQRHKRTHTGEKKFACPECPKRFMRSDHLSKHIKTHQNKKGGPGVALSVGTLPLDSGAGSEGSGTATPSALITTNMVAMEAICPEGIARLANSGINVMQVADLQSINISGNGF

B1: EZH2 promoter GC-rich oligo, wild type (dsDNA)
DNA 1: ACTTGGCTTCCAGCACCCGCCCCGCCCCTCCCCCGCCCGGGAACTCTGCGGCGCCG
DNA 2: CGGCGCCGCAGAGTTCCCGGGCGGGGGAGGGGCGGGGCGGGTGCTGGAAGCCAAGT
For the molecule B1, the binding result is “binds”.

B2: EZH2 promoter GC-rich oligo, mutant (dsDNA)
DNA 1: ACTTGGCTTCCAGCACCCGAAAAGCTTCTCCAACGTTCGGGAACTCTGCGGCGCCG
DNA 2: CGGCGCCGCAGAGTTCCCGAACGTTGGAGAAGCTTTTCGGGTGCTGGAAGCCAAGT
As for B2, the binding result is on record as “no binding”.
